{
  "source": "patent US20200345810A1",
  "about": "“USE OF ALPHA-1-MICROGLOBULIN FOR PROTECTION OF BONE MARROW CELLS” (GUARD THERAPEUTICS INTERNATIONAL AB, priority 2017, published 2020)",
  "molecules": {"B1": {"name": "hemopexin: mainly extracellular heme scavenger (Sigma-Aldrich) (protein, UniProt P02790 24-462, looked up)", "Hemopexin": "TPLPPTSAHGNVAEGETKPDPDVTERCSDGWSFDATTLDDNGTMLFFKGEFVWKSHKWDRELISERWKNFPSPVDAAFRQGHNSVFLIKGDKVWVYPPEKKEKGYPKLLQDEFPGIPSPLDAAVECHRGECQAEGVLFFQGDREWFWDLATGTMKERSWPAVGNCSSALRWLGRYYCFQGNQFLRFDPVRGEVPPRYPRDVRDYFMPCPGRGHGHRNGTGHGNSTHHGPEYMRCSPHLVLSALTSDNHGATYAFSGTHYWRLDTSRDGWHSWPIAHQWPQGPSAVDAAFSWEEKLYLVQGTQVYVFLTKGGYTLVSGYPKRLEKEVGTPHGIILDSVDAAFICPGSSRLHIMAGRRLWWLDLKSGAQATWTELPWPHEKVDGALCMEKSLGPNSCSANGPGLYLIHGPNLYCYSDVEKLNAAKALPQPQNVTSLLGCTH"}, "B2": {"name": "alpha-1-microglobulin (protein, listed as Homo sapiens)", "chain": "GPVPTPPDNIQVQENFDISRIYGKWYNLAIGSTCPWLKKIMDRMTVSTLVLGEGATEAEISMTSTHWRKGVCEETSGAYEKTDTDGKFLYHKSKWDITMESYVVHTNYDEYAIFLTKKFSRHHGPTITAKLYGRAPQLRETLLQDFRVVAQGVGIPEDSIFTMADRGECVPGEQEPEPILIPR", "modifications": "Wildtype human A1M, no mutations", "notes": "Recombinant human A1M, variant RMC-035 corresponding to A1M (R66H+N17,96D), supplied by A1M Pharma AB"}, "B3": {"name": "(M41K+R66H): A1M with point mutations M41K and R66H (protein, UniProt P02760 20-203, looked up, variant M41K R66H)", "Alpha-1-microglobulin": "GPVPTPPDNIQVQENFNISRIYGKWYNLAIGSTCPWLKKIKDRMTVSTLVLGEGATEAEISMTSTHWRKGVCEETSGAYEKTDTDGKFLYHKSKWNITMESYVVHTNYDEYAIFLTKKFSRHHGPTITAKLYGRAPQLRETLLQDFRVVAQGVGIPEDSIFTMADRGECVPGEQEPEPILIPRV", "modifications": "Alpha-1-microglobulin"}, "B4": {"name": "(M41K+N17,96D): A1M with point mutations M41K and N17,96D (protein, UniProt P02760 20-203, looked up, variant M41K N17D N96D)", "Alpha-1-microglobulin": "B3 Alpha-1-microglobulin with N17D, H66R, N96D", "modifications": "Alpha-1-microglobulin", "notes": "A1M with point mutations M41K and N17,96D"}, "B5": {"name": "(R66H+N17,96D): A1M with point mutations R66H and N17,96D; RMC-035 corresponds to this variant (protein, UniProt P02760 20-203, looked up, variant R66H N17D N96D)", "Alpha-1-microglobulin": "B3 Alpha-1-microglobulin with N17D, K41M, N96D", "modifications": "Alpha-1-microglobulin RMC-035"}, "B6": {"name": "(M41K+R66H+N17,96D): A1M with point mutations M41K, R66H and N17,96D (protein, UniProt P02760 20-203, looked up, variant M41K R66H N17D N96D)", "Alpha-1-microglobulin": "B3 Alpha-1-microglobulin with N17D, N96D", "modifications": "Alpha-1-microglobulin", "notes": "A1M with point mutations M41K, R66H and N17,96D"}},
  "key": {"[1]": {"tested_on": "Rps19 deficient erythroid precursors", "assay": "Drug screen: proliferation of Kit+ bone marrow cells in erythroid culture (CellTiter Glo)", "format": "cell-based, mice", "details": "5 days expansion; A1M at 5 and 10 μM; FIG. 4B", "experimental": "(§1) FIG. 4: A1M treatment improves expansion of erythroid cells from a murine DBA model and patients. CD117 (Kit)+ bone marrow cells were treated with Doxycycline to induce Rps19 deficiency. Twenty four hours after Doxycycline administration, cells were treated with drugs interfering with iron or heme availability. The ATP measuring platform CellTiter Glo was used to monitor viable cells after 5 days of expansion. In A) a schematic picture of the drug screen is shown. B) Proliferation of bone marrow cells (as described in A) from Rps19 inducible mice treated with respective drug compounds interfering with iron or heme availability is presented. Shown is also a schematic picture of drug activity where A1M is shown to have intracellular effects by reducing unbound heme in erythroblast. The cells were cultured in erythroid promoting media for 5 days. Kruskal-Wallis non parametric test with Dunn's multiple comparisons test was used for statistical analysis, and genotypes were compared to respective control, separately. p-values: *≤005, **≤001, ***≤0001, ****≤00001. C) Concentration of free unbound intracellular heme in Kit+ bone marrow cells from the Rps19 deficient mouse expanded in erythroid culture with A1M or vehicle for 72 hours. Mann Whitney non parametric analysis was employed for statistical analysis within each genotype. D) Expansion of CD34+ erythroid precursors from peripheral blood of DBA patients with mutations in RPS19, RPL35a and RPS26, or healthy controls treated with A1M or vehicle in erythroid promoting media for 7 days. […]\n(§2) The drugs administered 24 hours after Doxycycline administration were A1M (supplied by A1M Pharma AB, Sweden), N-methyl mesoporphyrin IX (AH Diagnostics, Denmark), Succinylacetone, hemin, Deferoxamine, Ferrostatin and N-acetyl-L-cystein and hemopexin (Sigma-Aldrich). Cell expansion 5 days after drug administration was measured using CellTiter Glo (Promega, US), which measures the number of viable and metabolically active cells in culture based on quantitation of the ATP present. Plates were read on Victor 3 Multilabel counter (PerkinElmer, US)."}, "[2]": {"details": "general background on A1M secreted into the blood stream; cited from earlier work"}, "WT cells": {"tested_on": "WT cells", "assay": "Drug screen: proliferation of Kit+ bone marrow cells in erythroid culture (CellTiter Glo)", "format": "cell-based, mice", "details": "5 days expansion; FIG. 4B", "experimental": "as §1, §2"}, "peripheral blood cells": {"tested_on": "peripheral blood cells", "assay": "Peripheral blood reticulocyte count after 177Lu-DOTATATE exposure", "format": "in vivo, BALB/c mice", "details": "A1M 20 mg/kg subcutaneous 30 minutes prior to 150 MBq 177Lu-DOTATATE i.v.; 4 days; FIG. 2B", "experimental": "(§3) Female BALB/c mice (Taconic, Denmark) at the age of 12 weeks were used in this study. Two groups (n=5-10) received a subcutaneous administration of either A1M (20 mg/kg) or vehicle buffer (10 mM Na-phosphate pH 7.4+0.15 M NaCl+12 mM histidine) followed by an intravenous (i.v.) injection, 30 minutes later, of ^177Lu-DOTATATE (150 MBq). A control group (n=5-10) received a subcutaneous administration of vehicle, followed by, 30 minutes after, an i.v. injections of NaCl. Animals were sacrificed 4 days post-injections.\nAfter 4 days (post ^177Lu-DOTATATE administration), blood, for peripheral blood cell and reticulocyte count, was sampled from vena saphena, on non-anesthetized animals, in EDTA pre-coated vials (Microvette CB 300 K2E, Sarstedt, Nümbrecht, Germany) and placed on a rocking mixer in room temperature followed by analysis as described below. Thereafter the animals were anaesthetized using isoflurane, sacrificed by cervical dislocation and femur (left and right) sampled and placed in PBS, pH 7.4 in a 24 well plate standing on wet ice.\nFollowing collection of peripheral blood SYSMEX KX-21N hematology analyzer was used for determining Blood parameters. Reticulocyte count was determined using LSR Fortessa or Canto II flow cytometry using Retic-Count (BD Biosciences)."}, "[3]": {"tested_on": "erythroid precursors from DBA patients", "assay": "Expansion of CD34+ erythroid precursors from peripheral blood (manual cell count)", "format": "cell-based, human", "details": "5 μM A1M every 2-3 days, 7-8 days; mutations in RPS19, RPS26, RPL35a; FIG. 4D", "experimental": "as §1, with “genotype.” for “genotype. D) Expansion of CD34+ erythroid precursors from peripheral blood of DBA patients with mutations in RPS19, RPL35a and RPS26, or healthy controls treated with A1M or vehicle in erythroid promoting media for 7 days.”"}, "[4]": {"tested_on": "cells from healthy subjects", "assay": "Expansion of CD34+ erythroid precursors from peripheral blood (manual cell count)", "format": "cell-based, human", "details": "5 μM A1M every 2-3 days, 7-8 days; FIG. 4D", "experimental": "as §1, with “genotype.” for “genotype. D) Expansion of CD34+ erythroid precursors from peripheral blood of DBA patients with mutations in RPS19, RPL35a and RPS26, or healthy controls treated with A1M or vehicle in erythroid promoting media for 7 days.”"}, "[5]": {"tested_on": "Rps19 deficient erythroid cells", "assay": "Free unbound intracellular heme in Kit+ bone marrow cells expanded in erythroid culture", "format": "cell-based, mouse", "details": "erythroid culture with A1M or vehicle for 72 hours; FIG. 4C", "experimental": "as §1, with “genotype.” for “genotype. D) Expansion of CD34+ erythroid precursors from peripheral blood of DBA patients with mutations in RPS19, RPL35a and RPS26, or healthy controls treated with A1M or vehicle in erythroid promoting media for 7 days.”"}, "bone marrow cells": {"tested_on": "bone marrow cells", "assay": "Bone marrow flow cytometry after 177Lu-DOTATATE exposure (radiation-induced damage)", "format": "in vivo, BALB/c mice", "details": "4 days", "experimental": "as §3\nAfter 4 days (post ^177Lu-DOTATATE administration), blood, for peripheral blood cell and reticulocyte count, was sampled from vena saphena, on non-anesthetized animals, in EDTA pre-coated vials (Microvette CB 300 K2E, Sarstedt, Nümbrecht, Germany) and placed on a rocking mixer in room temperature followed by analysis as described below. […]\nBone marrow cells were isolated by crushing femur in PBS containing 2% FCS (GIBCO, Waltham, Mass., USA) and passing them though a 70 um cell strainer to obtain single cell suspension. […] All experiments were performed on LSRFortessa (BD Biosciences) flow cytometry and analyzed with FlowJo software.\nBone marrow cellularity was counted from the single cell suspension using hematology analyzer SYSMEX KX-21 N."}, "[6]": {"assay": "Solubility/stability and function of A1M mutation variants", "format": "physicochemical", "details": "mutated A1M variants"}},
  "note": "Positions count from the first letter of the chain named. Names may count otherwise.",
  "data": [
    {"molecule": "B1", "values": [
      {"measurement": "proliferation of Rps19 deficient erythroid precursors", "setting": "[1]", "value": "no effect"}
    ]},
    {"molecule": "B2", "values": [
      {"measurement": "T½ of transport across the vessel walls to the extravascular compartment", "setting": "[2]", "value": "2 to 3", "unit": "min"},
      {"measurement": "proliferation of Rps19 deficient erythroid precursors", "setting": "[1]", "value": "increased proliferation"},
      {"measurement": "proliferation of WT cells", "setting": "WT cells", "value": "No effect on proliferation"},
      {"measurement": "percentage of viable reticulocytes in peripheral blood", "setting": "peripheral blood cells", "value": "completely preserved reticulocyte population at the level of the non-radiation exposed control animals"},
      {"measurement": "expansion of erythroid precursors from three DBA patients", "setting": "[3]", "value": "improved expansion"},
      {"measurement": "expansion of cells from healthy subjects", "setting": "[4]", "value": "no such trend was observed"},
      {"measurement": "level of unbound intracellular heme", "setting": "[5]", "value": "significantly reduce the level of unbound intracellular heme back to WT levels"},
      {"measurement": "percentage of viable reticulocytes in bone marrow", "setting": "bone marrow cells; A1M 20 mg/kg subcutaneous 30 minutes prior to 150 MBq 177Lu-DOTATATE i.v., FIG. 2A", "value": "completely preserved reticulocyte population at the level of the non-radiation exposed control animals"},
      {"measurement": "protection of the proerythroblast population", "setting": "bone marrow cells; A1M 20 mg/kg subcutaneous 30 minutes prior to 150 MBq 177Lu-DOTATATE, FIG. 3", "value": "displayed protection of the proerythroblast population"}
    ]},
    {"molecule": "B3", "values": [
      {"measurement": "solubility and/or stability and function", "setting": "[6]", "value": "increased solubility and/or stability with maintained function"}
    ]},
    {"molecule": "B4", "values": [
      {"measurement": "solubility and/or stability and function", "setting": "[6]", "value": "increased solubility and/or stability with maintained function"}
    ]},
    {"molecule": "B5", "values": [
      {"measurement": "solubility and/or stability and function", "setting": "[6]", "value": "increased solubility and/or stability with maintained function"}
    ]},
    {"molecule": "B6", "values": [
      {"measurement": "solubility and/or stability and function", "setting": "[6]", "value": "increased solubility and/or stability with maintained function"}
    ]}
  ]
}
